Assay results as given in the DeepSol protein solubility set.

Experiment: soluble on expression in E. coli; label from the status in PepcDB or PDB records

| Sequence | soluble on expression in E. coli |
| --- | --- |
| MALFRGMWSVLKALGRTGVEMCAGCGGRIPSSISLVCIPKCFSSMGSYPKKPMSSYLRFSTEQLPKFKAKHPDAKLSELVRKIAALWRELPEAEKKVYEADFKAEWKAYKEAVSKYKEQLTPSQLMGMEKEARQRRLKEKALVKRRELILLGKPKRPRSAYNIYVSESFQEAKDDSAQGKLKLVNEAWKNLSPEEKQAYIQLAKDDRIRTTYEMKSWEEQMAEVGRSDLIRRSVKRSGDISEH | soluble |
| QDKPVFVYRLIARGTVEEKIQHLQQEKAALADGLFSEGNGDGWKLDEADIDAL | soluble |
| MKSSSPISSLTTIISTGTNLGSGTDDDIYFGIHLNNGQKKEWLLDKETYNDFENGATDEYYLYINDMDFLPTMVDKVWVRKNSTGSFAGNWFFKALRIDANGNDVLSVSPNEWITDSNSQAEFNSDWSSVTNLTDPEFLEHHHHHH | soluble |
| MSLGQYDMQLIMGRTRWNGEFIGFERSTEKGVFSSNLKTEFMVELAESGGVGVFLNRRRVAALSLDGSRRALEAVLSCQKAFMTAQSDTRDEPSTDTKPKRHTKSSGTGFYVSDSGHIVTNHHVIAECSTINVLPPGGAAVSATLVAKDKTNDLAILKTASSPAAIPGLRSQMRLGEAVYVFGFPLTGILSTSGNFTAGAITATTGMEDDTRLAQISAPVQPGNSGGPLLDKYGNVIGVIVSKLNALNIAAATKDIPQNVNFAIKTGIATNFLDSSGVVPTGKVSTRELAPEAIADLAKIFTVQVLCNEGHHHHHH | not soluble |
| MSLHPVSISLSSYGADLVRSRGQASFLPLLAMAGAQRVELREELFAGPPDTEALTAAIQLQGLECVFSSPLELWREDGQLNPELEPTLRRAEACGAGWLKVSLGLLPEQPDLAALGRRLARHGLQLLVENDQTPQGGRIEVLERFFRLAERQQLDLAMTFDIGNWRWQEQAADEAALRLGRYVGYVHCKAVIRNRDGKLVAVPPSAADLQYWQRLLQHFPEGVARAIEYPLQGDDLLSLSRRHIAALARLGQPQEERQHG | soluble |
| MQDRSCYKLTQEGERLFRMQKYEKGIDLLKKALEVGTDDFSLLSAIYCQLGNAHTMLKDYEQALKFHTYDILVERLLGNKEGEAKSCANLGNIFKMKGAYNDALTFTFKQLDFAEELGDRVLKSRAYYNIATIYVERGRCTKLEAAEEKNDAKNAEATSDFENAAKYFMLNLEMSEKSEDALTMGRCYGSLGNTYYCLGDYDQSIHFHKLRLELSQQYGDRASMRRAHANIANCHALKSNMPLAIQHYKLAYNLAIEIGNKTEEAQMAYSLANALYIGKEVQKAITYFQRHLKIARSLEDISGQLRSYYSLALSFNNLCERRKALYFLVLAKRSSLQVNDTSALTDIDNLLNEILEAGQEDVLVDDIELIIDESADPAPADIEHRELRLTYFQKRNIHDKPVNTPEDPLAEDRYEKEEFFDMLAKLQSKRMNDQRVDASVLSSNLDFRVRQVDTEPDNSSTDGSEVLIDLLLNAQGRRMDDQRAPFLPGLNPNGQIILRRLNTDPGNEELDEHLVEWLMRVQGERLDEQRSELPPIKPEGQEEVDKKKEEDVTAIVMRMQAGRLEDQRAHLPNIPTSKN | not soluble |
| MEPTGLMVAAPTASLPEAIGGERNWDYRFTWIRDTAYVIEALSSIGYKYEATEFLYDMMDMITRDNRIRTIYSIDDSNDLEERIIDYEGYRGSRPVRIGNKAVDQLQIDQYGSIVRAIHSMAKAGGIVNSYLWDFVEQVMAKIEYLWKYPDSSIWEFRTEPKQYVYSKVMSWAAFDSAISMAKDLGLSAPIKQWKSIQDEIKKEVLEKGFDTDTNSFVQYYGSKNIDAALLRLPILGFIPANDEKFLGTLSRIEKELMVDGYLFKRYREDDGLKGDEGSFLMLTFWYIEDLILMKRLKKAREVLESVLEKANHLGLYSEEIDEKSGDFLGNFPQALSHLGVIRVAPKLEEALLKRTSKINSLEHHHHHH | not soluble |
| MNDETPRCPYNSLYKPLNLIKSKPDGCFKHNGQCTYGKNLVESVDDGNSRTPYNSIYEPLSLNKPKPDGRSSNGKKPVDNEYVNLPVLSEEQKLADKLAAKLRKLEVKEPKSKKRGSKERKKKKSEPVESTYESLATIEGSTNYSGPVTTESLESNVKFHHASQTAYIGVYSSADAEAQVKNRGEFALYHLFEVGNGIDHLTATLPLMLVYYTTTKKHRHYPVRESGGKGMVQYSVDCGYPIVRKHYSLNQLVQYYKSFGSIQMKQEDTCSEEFSWWLE | not soluble |
| MPNQNFNAQLAEAISALNTPNFTPKLMSVIHSIFDFDCAIILGYREGKHPIYLYDSIENERELLFQRYLTNSFQNDPFFQNLNQHKQQGIFTLKDVAKKGIEYQTYRKQFYDQTGWKDELSMLVEIESGRWVILYFGCLREGKRFSAAQINNLRSHFSVLQSLCQQHWKQAEFNLSEPVVRPDAYTGNMKVAIEQALSSFGIE | not soluble |
| MHIQRKSTMSKCSADETPVCCCMDVGTIMDNSDCTASYSRVFANRAEAEQTLAALTEKARSVESEPCKITPTFTEESDGVRLDIDFTFACEAEMLIFQLGLR | not soluble |
| MEIPVIEPLFTKVTEDIPGAAGPVFDKNGDFYIVAPYVEVNGKPAGEILRIDLKTGKKTVICKPEVNGYGGIPIGCQCDRDANQLFVADMRLGLLVVQTDGTFEEIAKKDSEGRRMQGCAYCAFDYEGNLWITAPAGEVAPADFTISLQEKFGSIYCFTTDGQMIQVDTAFQAPAGIAVRHMNDGRPYQLIVAEQPTKKLWSYDIKGPAKIENKKVWGHIPGTHKGGAAGMDFDEDNNLLVANWGSSHIEVFGPDGGQPKMRIRCPFEKPSALHFKPQTKTIFVTEHENNAVWKFEWQRNGKKQYCETLKFGIFGSLEHHHHHH | soluble |
| MNRFSGKSVIVTGSSSGIGRATAVLFAKYGAQVTITGRDAGKLEATKKKMLKVMKNPENVCVVVANLTDSDGQDEIVQSALDAFGRIDVLVNNAGANVVDGTFNTDQSTELYHKTFQINFEAVIEMVKKTKNHLIESKGEIVNVSSVAAGPQALAPSPYYAASKAALDQYTRCVALDLILQGVRVNSVSPGVVTSGFLGAMGMSEQVQKQIEENFTSNRACIPAGVCGKPEDIAELIIFLADRKRSSYIIGQSIVADGGTSLVSGLTAQNIQRNN | not soluble |
| MIDETAEEIREMRTHSSSVVAVKAARALEALLDSDYPTVAAYVRALERNSTALRRANPSHASLVTTQREVVSRVRDADPASIPEAQEVTAAAIDDVVARVNMGKHDAAAATAEHITDGQTLLTHDYSSTVLEAIELAAQDGAHLDVFVTEARPRHLGRKTVRALAQLDRVDPTLIVDGAAGHVLDDCDRVLLGMDCIVADTYYNRVGTYPIVAAAADAGTPVTVAGSAAKLVADGFQFTNDFRDTSEVIREPPAGFTVENPAYDATPTRLLDAVVTEDGRRTEFPLESLEHHHHHH | not soluble |
| MAHHHHHHMKQSDFIFFVLRFWHFVPPYIIEKYAVSAFLNEDFLRAIRLKIEELRPPGRREPHSCVLKEHSDTSFTRKEVLPPPERLSNPVAMDHWVLYEPKVQNFPLVDGFFLVDSNPMTLVGLRMTTAGEHRTTTSTVRQFTECLAAYFNGWEELSRDMSWEIINVQHADSTPINDWQRCDVVDSDNVSRAENREIAAFWEEEVRQYIAAVSSGDF | not soluble |
| GMSAGQSSLSFAHGDETHPIEQKAFIGVDSAAGNVVKQFHAALQMGNEAIVRQSLAANVQIYEGGKVERSLTEYANHHMLADMAYLKGLTITPKEHQITITGDIAISTSISHAQGEYKGKSIDSMTMETLVLIKQADGRWKITHVHWS | soluble |
| MSLRDYAEIAASGILRAVTEYNSISFYADGDTVSGFHYELLHAFAHSKGLKPEITPEMSFSKRLEDVQKGTYDILANSTVVTTEYKDSLLFTRPIILNKQVLVQRKPEKENDSLYIHSQLELARKTLHLVKNSPAILRIHNLSNEIGDTIYIKEVEKYGQEQLLAMVAHGDIDYAVCDESIAKASINDFPQLDIETAISFSQFYSWGVSKHSPILLDSLNSWLNDYVKTPAFKLLRKKYYNNEGHHHHHH | soluble |
| MENKIQELTDKIYREGVEKGNEEAQRLIANAQEEAKKIIEDARKEADSIVAASRKSADELADNTKSELKLFSGQAVNALKSEIATMVTDKLITASVKDFAQDKDYLNAFIVALASKWSVDEPIVISTADAESLKKYFAAHAKALLDKGVTIEQVNGIKTLFTVSPADGSYKVNFGEEEFMNYFKAFLRPQLVEMLF | not soluble |
